Assay results published in the supplement of paper PMC10567573.
± gives the standard deviation.

Assay: protein stability index of a GFP-peptide fusion (GPS, HEK-293T) (PSI 1-6); higher = more stable
Conditions: c terminus: a fixed tail appended
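Also: 24-mer peptide tiles fused after GFP, lentivirally expressed, FACS-sorted into six equal bins by GFP/DsRed ratio, decoded by Illumina sequencing, PSI is the read-weighted mean bin number.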

| Sequence | protein stability index (treatment: DMSO) | protein stability index (treatment: MLN4924 1 uM, 8 h) |
| --- | --- | --- |
| SGYHYGVWSCEGCKAFFKRSIQGH [ESR2] | 2.03 ± 0.33 | 2.52 ± 0.41 |
| SKAKPKPPKQAQKEQRKQMKGRGQ [TBC1D10A] | 5.02 ± 0.23 | 5.08 ± 0.31 |
| SLFCYEDQEAVCLICAISHTHRAH [TRIM39] | 2.15 ± 0.19 | 2.19 ± 0.2 |
| SLGQMKELGVIFYNCSCLVLDLQR [PLD5] | 2.44 ± 0.64 | 2.93 ± 0.48 |
| SLHVDDRERMELLEEAKKMEMAKF [RIPK4] | 4.92 ± 0.42 | 4.76 ± 0.15 |
| SLNALEDQDLDALMADLVADISEA [APBB1IP] | 4.58 ± 0.15 | 4.36 ± 0.23 |
| SLVAILLVFLITAILVKVQLDALP [SLC29A1] | 2.35 ± 0.6 | 2.54 ± 0.58 |
| SLVGNLGISGTTTKKGDLQWNAGE [SNAP91] | 3.54 ± 0.39 | 3.62 ± 0.23 |
| SNMKSRYTTEFHELEKIGSGEFGS [WEE1] | 3.9 ± 0.31 | 4.04 ± 0.19 |
| SNSQPTNESHSIKAILKNISVLAF [SLC29A1] | 2.45 ± 0.46 | 2.43 ± 0.29 |
| SNVGTAISKKFGDMSYSIRHSISM [TPD52L1] | 2.19 ± 0.49 | 2.26 ± 0.45 |
| SPFSGSLHAPPAFYSTSSGLANGL [VENTX] | 2.89 ± 0.048 | 2.96 ± 0.17 |
| SPGKQPGENSDCHRDSSQAIPITE [ZNF8] | 5.4 ± 0.17 | 5.429 ± 0.041 |
| SPNPFPEISRGEYLYTYDSQITDS [ZNF8] | 4.08 ± 0.17 | 4.35 ± 0.38 |
| SPPGSTKRRKSMSGASPKESTNPE [CDC25A] | 5.47 ± 0.11 | 5.4 ± 0.21 |
| SPSGAALPLPLSLAPPPLPLPAAA [ZBTB22] | 3.92 ± 0.25 | 4.2 ± 0.29 |
| SQEPDPVQRLQAYTATEQEMQQQM [TRIM14] | 5.39 ± 0.15 | 5.17 ± 0.14 |
| SQFSGTLMRTCERLVKEGRFVPSN [PPTC7] | 3.12 ± 0.17 | 3.04 ± 0.4 |
| SQPATPTPLQSRTSIVQAAAGGVP [PDLIM7] | 4.6 ± 0.25 | 4.6 ± 0.19 |
| SQTDRGASAGKRRCFWLGMEGLET [SDE2] | 2.87 ± 0.45 | 2.96 ± 0.14 |
| SREMLQQSKILKVIRKNIVKKCLE [HSP90AB1] | 2.56 ± 0.31 | 2.42 ± 0.57 |
| SRFSSSTEQSSASRLMRRHKRRRR [DVL3] | 5.17 ± 0.084 | 5.257 ± 0.022 |
| SRGACTSHDPQSSRGSRRRRRQRS [KCNA4] | 5.39 ± 0.4 | 5.53 ± 0.32 |

| Sequence | protein stability index (treatment: DMSO) | protein stability index (treatment: MLN4924 1 uM, 8 h) |
| --- | --- | --- |
| SRGTSQTPNASSPGNPTALANGTV [LPCAT4] | 4.73 ± 0.051 | 4.77 ± 0.068 |
| SRKKPIWNVLMWTSLFLGNGVLLC [SOAT1] | 2.67 ± 0.81 | 2.73 ± 0.61 |
| SRRLQLGSEENGRYFSLSLMSGAL [PCDHGC5] | 2.27 ± 0.4 | 2.3 ± 0.35 |
| SRTVRQFQFTDWPEQGVPKSGEGF [PTPRD] | 3.88 ± 0.25 | 4.02 ± 0.68 |
| SRVNNASYCPHCGEESSKAKEVTI [EHMT1] | 3.39 ± 0.14 | 3.37 ± 0.32 |
| SSCTHVTGNYRKGNAHLGYSLVTH [ADAMTSL2] | 2.92 ± 0.7 | 2.77 ± 0.42 |
| SSEAFHNYMNAAMVHINRALKLII [RTN3] | 2.62 ± 0.46 | 2.06 ± 0.38 |
| SSFSRPLGYPYVNSVSSHASSPYI [DLX1] | 2.62 ± 0.18 | 2.79 ± 0.51 |
| SSGCFMEYLENQVIKDKDDSVDAQ [RNF180] | 4.59 ± 0.21 | 4.63 ± 0.19 |
| SSKSRAAPSPQEALVRLRETEEML [CHMP4C] | 2.79 ± 0.58 | 3.45 ± 0.81 |
| SSPPQGASPVPESSLTADLLSVDA [SNAP91] | 5.28 ± 0.18 | 5.34 ± 0.16 |
| SSPQGKSGPEAARAGGWVSGEEFY [PKD2L1] | 4.51 ± 0.2 | 4.54 ± 0.17 |
| SSSASYGGGFGGGSCQLGGGRGVS [KRT13] | 3.71 ± 0.65 | 3.94 ± 0.36 |
| SSSKGTIRLCDMRASALCDRHTKF [PPP2R2B] | 3.01 ± 0.048 | 3.14 ± 0.078 |
| SSSYAGQFRVIGPRHPIRALVGDE [MOG] | 3.54 ± 0.31 | 3.48 ± 0.32 |
| SSVQSYPGSASLAQSRLEDPGQDL [DLX1] | 4.89 ± 0.28 | 5.09 ± 0.19 |
| STATSITLTWDSGNPEPVSYYIIQ [PTPRD] | 2.83 ± 0.59 | 2.9 ± 0.65 |
| STDIGALMYPSYTFSGDVQLAQDD [MMP1] | 4.9 ± 0.13 | 4.74 ± 0.28 |
| STLVEVTLGEVPAAESPDPPQSPQ [MAGEA3] | 5.39 ± 0.14 | 5.27 ± 0.17 |
| SVKKQGETVADVRTLPNASTVDNI [MLH1] | 5.12 ± 0.12 | 5.25 ± 0.14 |
| SVPMNGTSIQWKNHDQNNHNTDRS [EDNRA] | 4.5 ± 0.29 | 4.92 ± 0.24 |
| SVRILGSLVAILLVFLITAILVKV [SLC29A1] | 2.9 ± 0.44 | 2.85 ± 0.66 |
| SVWVLRDFPEDGLKIFTEDLPEVE [VPS39] | 3.55 ± 0.34 | 3.59 ± 0.33 |

| Sequence | protein stability index (treatment: DMSO) | protein stability index (treatment: MLN4924 1 uM, 8 h) |
| --- | --- | --- |
| SWKESSMNIIELEIPDQNIDVEAL [GMCL1] | 4.26 ± 0.23 | 4.08 ± 0.29 |
| SYGGGSASSQHSEGSRSSGSNRSG [DVL3] | 5.23 ± 0.081 | 5.16 ± 0.29 |
| SYMRNENVISELNIEDYFSHHLAV [FBXO39] | 2.26 ± 0.23 | 2.4 ± 0.38 |
| SYSLSRKKIVHYTCFDQRKRANAA [CDC14A] | 2.88 ± 0.28 | 3.05 ± 0.12 |
| TAFLLNIQLFEELQELLTHDTKDQ [HMOX1] | 2.32 ± 0.28 | 2.49 ± 0.44 |
| TAGQERYRAITSAYYRGAVGALLV [RAB11A] | 2.22 ± 0.24 | 2.19 ± 0.24 |
| TAPEEVPKVSDQALVSAHSEWQRK [DMRTC1] | 4.88 ± 0.61 | 5.07 ± 0.39 |
| TARPFGAPPPADSAPQQNGQPLRP [PDLIM7] | 4.84 ± 0.52 | 4.92 ± 0.058 |
| TEYIESPDVENEVKRLLRSDAEAV [TAF7L] | 4.97 ± 0.33 | 5.03 ± 0.22 |
| TFGFITMTPQLFINYKLKSVAHLP [CLPTM1] | 2.59 ± 0.47 | 2.92 ± 0.86 |
| TGDPLPEISKDNSCKENCTCSSCL [EDARADD] | 5.47 ± 0.3 | 5.47 ± 0.26 |
| TGIEGNWGRLLEQVGTMALWASQR [ZBED2] | 1.98 ± 0.57 | 2.48 ± 0.49 |
| TGILLHPWLRQDPMPLAPTRSHLW [TRIB3] | 2.11 ± 0.25 | 2.18 ± 0.089 |
| TGVFITLSIVLERMRYEGVVDIFQ [PTPRD] |  | 3.66 ± 0.2 |
| THFASQEFFSANAISDQLLGAGSD [ADAMTSL2] | 4.27 ± 0.23 | 4.23 ± 0.25 |
| TIENILDNDPRDLIGDFSKGYLFH [CDC25A] | 2.58 ± 0.38 | 2.69 ± 0.19 |
| TIPLFVQLLYSPIENIQRVAAGVL [CTNNB1] | 2.77 ± 0.78 | 2.71 ± 0.38 |
| TISFICRELDAISTNEEEKEENEA [PRIM1] | 5.16 ± 0.26 | 5.16 ± 0.1 |
| TITAPPSRVLQNGGDKLETMPLYL [SCD] | 3.5 ± 0.41 | 3.43 ± 0.29 |
| TKVRKQEIIKVTEQLIEAISNGDF [CAMK2A] | 2.38 ± 0.32 | 2.66 ± 0.42 |
| TLAALLLNRSESDIRYLLGYVSQQ [FEM1B] | 2.39 ± 0.42 | 2.52 ± 0.61 |
| TLIMLLSLAAFSVISVVSYLILAL [RTN3] | 2.58 ± 0.36 | 2.12 ± 0.11 |
| TLNILLYEAQDGRGPDNALLEATG [KCTD10] | 2.92 ± 0.21 | 3.29 ± 0.31 |

| Sequence | protein stability index (treatment: DMSO) | protein stability index (treatment: MLN4924 1 uM, 8 h) |
| --- | --- | --- |
| TLNKCAVMKLEISPHRKRSDDSDE [DLC1] | 4.11 ± 0.31 | 4.29 ± 0.094 |
| TMNRRVCVLMLLAAWIGGFLHSLV [OR4A15] | 2.53 ± 0.36 | 2.18 ± 0.24 |
| TNTRRGSRAPCKVQGLEGIKMAMV [NEK8] | 2.32 ± 0.25 | 2.32 ± 0.23 |
| TNTRSDLDVFGRGDNISDVSKFLE [LUC7L3] | 4.67 ± 0.16 | 4.76 ± 0.19 |
| TPGDCPPGRRDEDAGEGIQCSQRM [TMEM175] | 5.15 ± 0.37 | 5.25 ± 0.18 |
| TPLHRDKTPLHQKHAAFVTPDQKY [MYBL2] | 4.11 ± 0.2 | 4.08 ± 0.24 |
| TPSVPPPASQHSTPAGLPPSRAKP [FBF1] | 5.3 ± 0.25 | 5.22 ± 0.23 |
| TQAPPSVILGVTNPFFAKTLQHWP [DENND6A] | 2.26 ± 0.24 | 2.12 ± 0.17 |
| TQDSARVNPQDGTNTLTRIAENGV [EHMT1] | 5.11 ± 0.16 | 5.1 ± 0.19 |
| TQEKKRLSRTNEELLWKLQTGDPT [MTUS2] | 4.46 ± 0.34 | 4.36 ± 0.11 |
| TRRVTFEADENENITVVKGIRLSE [CHCHD3] | 4.29 ± 0.13 | 4.47 ± 0.23 |
| TSAAYRYYIDDVFHALVREIRRKE [RIT1] | 2.16 ± 0.36 | 2.35 ± 0.26 |
| TSEKLGEWNEKVTQSDLYKKTQET [TPD52L2] | 5.13 ± 0.28 | 5.1 ± 0.063 |
| TSIEPSKSSIIPFRALKRPLQFLG [ZER1] | 2.42 ± 0.38 | 2.22 ± 0.16 |
| TSQEIFRQRFRHLRYQETPGPREA [ZNF232] | 3.63 ± 0.36 | 3.6 ± 0.28 |
| TSQFLSLQCLQALYVDSLFFLRGR [PRAME] | 2.49 ± 0.67 | 2.96 ± 0.82 |
| TTMNYPLWSQSYEDSSNQEEEGPS [MAGEA3] | 5.43 ± 0.11 | 5.36 ± 0.13 |
| TVGCSSQHTPDQANSDRASIGRRR [PLEKHN1] | 5.04 ± 0.36 | 5.02 ± 0.15 |
| TVQHGAVYSLEPRLCGGKGGFGSM [SDE2] | 2.33 ± 0.37 | 2.39 ± 0.29 |
| TVRFCILGKESFYDTFHTVADMMY [HACD3] | 2.8 ± 0.69 | 2.85 ± 0.78 |
